Measured values published in patent US20030135878.

Target: wheat thioredoxin h (WTRXh), 13.5-kDa protein encoded by the 384-bp wtrxh fragment (UniProt O64394)
Sequence (O64394 whole entry, the tested form may be a part): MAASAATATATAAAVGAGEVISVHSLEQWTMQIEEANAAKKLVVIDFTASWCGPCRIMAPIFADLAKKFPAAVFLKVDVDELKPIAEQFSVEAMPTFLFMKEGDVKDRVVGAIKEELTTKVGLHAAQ

barley NTR (NADP-thioredoxin reductase)
reduction of DTNB [5,5'-dithiobis(2-nitrobenzoic acid)] via NTR and thioredoxin: confirmed the ability of barley NTR to reduce wheat thioredoxin h (data not shown)

Arabidopsis thaliana NTR (NADP-thioredoxin reductase)
Relative reduction of albumin-fraction proteins (mBBr fluorescence/protein), Homozygous/Null Segregant, +NADPH/NTR (fold (Homozygous/Null Segregant)): 3.91
